Laboratory results as given in patent US11965039B2, “Compstatin analogues and their medical uses” (priority 2018, dated 2024).
Positions of bridges follow the written chain, without caps; N, C: chain ends. Non-standard residues stand in square brackets, D forms with d. Sar = CNCC(=O)O

B1: Compound 35 (peptide)
peptide: Ac-EGEICIWQDWGEHRCEGE-NH2
modifications: disulfide 5-15
SMILES: CC[C@H](C)[C@@H]1NC(=O)[C@@H](NC(=O)[C@@H](NC(=O)[C@H](CCC(=O)O)NC(=O)CNC(=O)[C@H](CCC(=O)O)NC(C)=O)[C@@H](C)CC)CSSC[C@@H](C(=O)N[C@@H](CCC(=O)O)C(=O)NCC(=O)N[C@@H](CCC(=O)O)C(N)=O)NC(=O)[C@H](CCCNC(=N)N)NC(=O)[C@H](Cc2c[nH]cn2)NC(=O)[C@H](CCC(=O)O)NC(=O)CNC(=O)[C@H](Cc2c[nH]c3ccccc23)NC(=O)[C@H](CC(=O)O)NC(=O)[C@H](CCC(N)=O)NC(=O)[C@H](Cc2c[nH]c3ccccc23)NC1=O
B2: Compound 36 (peptide)
peptide: Ac-ESEICIWQDWGEHRCEGE-NH2
modifications: disulfide 5-15
SMILES: CC[C@H](C)[C@@H]1NC(=O)[C@@H](NC(=O)[C@@H](NC(=O)[C@H](CCC(=O)O)NC(=O)[C@H](CO)NC(=O)[C@H](CCC(=O)O)NC(C)=O)[C@@H](C)CC)CSSC[C@@H](C(=O)N[C@@H](CCC(=O)O)C(=O)NCC(=O)N[C@@H](CCC(=O)O)C(N)=O)NC(=O)[C@H](CCCNC(=N)N)NC(=O)[C@H](Cc2c[nH]cn2)NC(=O)[C@H](CCC(=O)O)NC(=O)CNC(=O)[C@H](Cc2c[nH]c3ccccc23)NC(=O)[C@H](CC(=O)O)NC(=O)[C@H](CCC(N)=O)NC(=O)[C@H](Cc2c[nH]c3ccccc23)NC1=O
B3: Compound 37 (peptide)
peptide: Ac-KEKICIWQDWGEHRCTEKE-NH2
modifications: disulfide 5-15
SMILES: CC[C@H](C)[C@@H]1NC(=O)[C@@H](NC(=O)[C@@H](NC(=O)[C@H](CCCCN)NC(=O)[C@H](CCC(=O)O)NC(=O)[C@H](CCCCN)NC(C)=O)[C@@H](C)CC)CSSC[C@@H](C(=O)N[C@H](C(=O)N[C@@H](CCC(=O)O)C(=O)N[C@@H](CCCCN)C(=O)N[C@@H](CCC(=O)O)C(N)=O)[C@@H](C)O)NC(=O)[C@H](CCCNC(=N)N)NC(=O)[C@H](Cc2c[nH]cn2)NC(=O)[C@H](CCC(=O)O)NC(=O)CNC(=O)[C@H](Cc2c[nH]c3ccccc23)NC(=O)[C@H](CC(=O)O)NC(=O)[C@H](CCC(N)=O)NC(=O)[C@H](Cc2c[nH]c3ccccc23)NC1=O
B4: Compound 38 (peptide)
peptide: Ac-EKGICIWQDWGEHRCTEKP-NH2
modifications: disulfide 5-15
SMILES: CC[C@H](C)[C@H](NC(=O)CNC(=O)[C@H](CCCCN)NC(=O)[C@H](CCC(=O)O)NC(C)=O)C(=O)N[C@H]1CSSC[C@@H](C(=O)N[C@H](C(=O)N[C@@H](CCC(=O)O)C(=O)N[C@@H](CCCCN)C(=O)N2CCC[C@H]2C(N)=O)[C@@H](C)O)NC(=O)[C@H](CCCNC(=N)N)NC(=O)[C@H](Cc2c[nH]cn2)NC(=O)[C@H](CCC(=O)O)NC(=O)CNC(=O)[C@H](Cc2c[nH]c3ccccc23)NC(=O)[C@H](CC(=O)O)NC(=O)[C@H](CCC(N)=O)NC(=O)[C@H](Cc2c[nH]c3ccccc23)NC(=O)[C@H]([C@@H](C)CC)NC1=O
B5: Compound 39 (peptide)
peptide: Ac-ICIWQDWGEHRCTEGK-NH2
modifications: disulfide 2-12
SMILES: CC[C@H](C)[C@H](NC(C)=O)C(=O)N[C@H]1CSSC[C@@H](C(=O)N[C@H](C(=O)N[C@@H](CCC(=O)O)C(=O)NCC(=O)N[C@@H](CCCCN)C(N)=O)[C@@H](C)O)NC(=O)[C@H](CCCNC(=N)N)NC(=O)[C@H](Cc2c[nH]cn2)NC(=O)[C@H](CCC(=O)O)NC(=O)CNC(=O)[C@H](Cc2c[nH]c3ccccc23)NC(=O)[C@H](CC(=O)O)NC(=O)[C@H](CCC(N)=O)NC(=O)[C@H](Cc2c[nH]c3ccccc23)NC(=O)[C@H]([C@@H](C)CC)NC1=O
B6: Compound 40 (peptide)
peptide: Ac-GSAICIWQDWGEHRC[Sar]E-NH2
modifications: disulfide 5-15
SMILES: CC[C@H](C)[C@H](NC(=O)[C@H](C)NC(=O)[C@H](CO)NC(=O)CNC(C)=O)C(=O)N[C@H]1CSSC[C@@H](C(=O)N(C)CC(=O)N[C@@H](CCC(=O)O)C(N)=O)NC(=O)[C@H](CCCNC(=N)N)NC(=O)[C@H](Cc2c[nH]cn2)NC(=O)[C@H](CCC(=O)O)NC(=O)CNC(=O)[C@H](Cc2c[nH]c3ccccc23)NC(=O)[C@H](CC(=O)O)NC(=O)[C@H](CCC(N)=O)NC(=O)[C@H](Cc2c[nH]c3ccccc23)NC(=O)[C@H]([C@@H](C)CC)NC1=O
B7: Compound 41 (peptide)
peptide: Ac-SAICIWQDWGEHRC[Sar]E-NH2
modifications: disulfide 4-14
SMILES: CC[C@H](C)[C@H](NC(=O)[C@H](C)NC(=O)[C@H](CO)NC(C)=O)C(=O)N[C@H]1CSSC[C@@H](C(=O)N(C)CC(=O)N[C@@H](CCC(=O)O)C(N)=O)NC(=O)[C@H](CCCNC(=N)N)NC(=O)[C@H](Cc2c[nH]cn2)NC(=O)[C@H](CCC(=O)O)NC(=O)CNC(=O)[C@H](Cc2c[nH]c3ccccc23)NC(=O)[C@H](CC(=O)O)NC(=O)[C@H](CCC(N)=O)NC(=O)[C@H](Cc2c[nH]c3ccccc23)NC(=O)[C@H]([C@@H](C)CC)NC1=O
B8: Compound 42 (peptide)
peptide: Ac-SAICIWQDWGEHRCTEG-NH2
modifications: disulfide 4-14
SMILES: CC[C@H](C)[C@H](NC(=O)[C@H](C)NC(=O)[C@H](CO)NC(C)=O)C(=O)N[C@H]1CSSC[C@@H](C(=O)N[C@H](C(=O)N[C@@H](CCC(=O)O)C(=O)NCC(N)=O)[C@@H](C)O)NC(=O)[C@H](CCCNC(=N)N)NC(=O)[C@H](Cc2c[nH]cn2)NC(=O)[C@H](CCC(=O)O)NC(=O)CNC(=O)[C@H](Cc2c[nH]c3ccccc23)NC(=O)[C@H](CC(=O)O)NC(=O)[C@H](CCC(N)=O)NC(=O)[C@H](Cc2c[nH]c3ccccc23)NC(=O)[C@H]([C@@H](C)CC)NC1=O
B9: Compound 44 (peptide)
peptide: Ac-EGSAICIWQDWGEHRC[Sar]EGE-NH2
modifications: disulfide 6-16
SMILES: CC[C@H](C)[C@H](NC(=O)[C@H](C)NC(=O)[C@H](CO)NC(=O)CNC(=O)[C@H](CCC(=O)O)NC(C)=O)C(=O)N[C@H]1CSSC[C@@H](C(=O)N(C)CC(=O)N[C@@H](CCC(=O)O)C(=O)NCC(=O)N[C@@H](CCC(=O)O)C(N)=O)NC(=O)[C@H](CCCNC(=N)N)NC(=O)[C@H](Cc2c[nH]cn2)NC(=O)[C@H](CCC(=O)O)NC(=O)CNC(=O)[C@H](Cc2c[nH]c3ccccc23)NC(=O)[C@H](CC(=O)O)NC(=O)[C@H](CCC(N)=O)NC(=O)[C@H](Cc2c[nH]c3ccccc23)NC(=O)[C@H]([C@@H](C)CC)NC1=O
B10: Compound 45 (peptide)
peptide: Ac-EGSAFCIWQDWGEHRC[Sar]E-NH2
modifications: disulfide 6-16
SMILES: CC[C@H](C)[C@@H]1NC(=O)[C@@H](NC(=O)[C@H](Cc2ccccc2)NC(=O)[C@H](C)NC(=O)[C@H](CO)NC(=O)CNC(=O)[C@H](CCC(=O)O)NC(C)=O)CSSC[C@@H](C(=O)N(C)CC(=O)N[C@@H](CCC(=O)O)C(N)=O)NC(=O)[C@H](CCCNC(=N)N)NC(=O)[C@H](Cc2c[nH]cn2)NC(=O)[C@H](CCC(=O)O)NC(=O)CNC(=O)[C@H](Cc2c[nH]c3ccccc23)NC(=O)[C@H](CC(=O)O)NC(=O)[C@H](CCC(N)=O)NC(=O)[C@H](Cc2c[nH]c3ccccc23)NC1=O

Biological target: Human C3 (Complement tech cat #A113c) (human, UniProt P01024 23-1663)
Sequence (P01024 23-1663 limits assumed): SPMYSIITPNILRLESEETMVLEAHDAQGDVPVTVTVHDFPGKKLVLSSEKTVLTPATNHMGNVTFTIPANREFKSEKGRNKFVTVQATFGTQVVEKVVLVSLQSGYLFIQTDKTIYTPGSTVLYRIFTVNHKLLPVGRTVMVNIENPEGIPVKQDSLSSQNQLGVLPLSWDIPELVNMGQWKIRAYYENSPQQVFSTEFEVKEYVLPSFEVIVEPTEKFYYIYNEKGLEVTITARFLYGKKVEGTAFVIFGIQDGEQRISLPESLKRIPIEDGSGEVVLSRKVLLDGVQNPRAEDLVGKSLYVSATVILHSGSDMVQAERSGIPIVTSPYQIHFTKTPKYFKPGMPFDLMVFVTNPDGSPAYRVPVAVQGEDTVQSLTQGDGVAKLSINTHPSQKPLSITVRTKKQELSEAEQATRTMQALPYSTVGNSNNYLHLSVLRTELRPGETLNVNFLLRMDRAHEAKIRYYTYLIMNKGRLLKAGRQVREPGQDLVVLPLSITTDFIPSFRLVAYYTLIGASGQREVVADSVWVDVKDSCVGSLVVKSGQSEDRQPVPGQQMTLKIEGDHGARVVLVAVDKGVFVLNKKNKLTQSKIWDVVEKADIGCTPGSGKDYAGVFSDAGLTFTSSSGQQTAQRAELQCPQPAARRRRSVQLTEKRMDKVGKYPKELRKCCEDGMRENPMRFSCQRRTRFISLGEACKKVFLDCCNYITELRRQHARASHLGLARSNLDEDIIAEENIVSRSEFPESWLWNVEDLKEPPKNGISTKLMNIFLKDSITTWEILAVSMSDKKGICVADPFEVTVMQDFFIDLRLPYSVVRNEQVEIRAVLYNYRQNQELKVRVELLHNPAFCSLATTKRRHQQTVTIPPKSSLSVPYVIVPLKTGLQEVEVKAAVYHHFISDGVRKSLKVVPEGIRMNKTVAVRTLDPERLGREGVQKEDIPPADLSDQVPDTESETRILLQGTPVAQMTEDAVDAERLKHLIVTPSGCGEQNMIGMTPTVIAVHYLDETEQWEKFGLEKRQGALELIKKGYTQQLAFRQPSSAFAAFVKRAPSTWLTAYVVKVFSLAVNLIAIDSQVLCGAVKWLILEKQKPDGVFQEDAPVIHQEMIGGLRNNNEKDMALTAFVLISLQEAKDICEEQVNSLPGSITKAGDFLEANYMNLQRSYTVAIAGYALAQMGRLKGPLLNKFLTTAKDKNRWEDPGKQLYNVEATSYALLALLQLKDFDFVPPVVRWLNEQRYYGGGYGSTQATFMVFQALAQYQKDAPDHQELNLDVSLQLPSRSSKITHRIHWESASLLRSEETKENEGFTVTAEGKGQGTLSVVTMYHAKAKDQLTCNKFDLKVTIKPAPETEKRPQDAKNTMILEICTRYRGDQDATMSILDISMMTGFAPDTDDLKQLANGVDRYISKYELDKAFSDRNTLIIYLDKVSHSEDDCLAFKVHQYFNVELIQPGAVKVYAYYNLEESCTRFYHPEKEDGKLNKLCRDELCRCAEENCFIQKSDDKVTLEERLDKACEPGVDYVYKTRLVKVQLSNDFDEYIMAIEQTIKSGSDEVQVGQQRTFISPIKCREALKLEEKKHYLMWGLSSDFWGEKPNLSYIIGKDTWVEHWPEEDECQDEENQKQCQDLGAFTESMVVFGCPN
Experiment: cell-based or functional assay

Binder | inhibition of hemolysis IC50 [nM]
B1 | < 500
B2 | < 250
B3 | < 250
B4 | < 250
B5 | < 100
B6 | < 250
B7 | < 250
B8 | < 250
B9 | < 250
B10 | < 100
